Assay results taken from the supplement of paper PMC9170038.

System: MS2 coat protein
Assay: apparent KD of MS2 coat protein; designed switch direction (-1 OFF switch, 1 ON switch): -1; higher = weaker reporter binding
Outline: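 For each design, the apparent KD is the median over clusters of curves fitted to normalised cluster fluorescence. Clusters held RNA switches with common flanks, transcribed on Illumina chips by stalled E. coli RNA polymerase. These were titrated with SNAP-549-labelled MS2 coat protein, doubling from 0.7 or 1.5 nM to 3 µM, without input, with 200 uM small-molecule ligand, or with an oligonucleotide input.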

[1] = input ligand: microRNA oligo, concentration not stated
[2] = Eterna round: R95, input ligand: FMN 200 uM
[3] = Eterna round: R95, input ligand: microRNA oligo, concentration not stated
[4] = Eterna round: R95, input ligand: none

Sequence	apparent KD of MS2 coat protein (input ligand: FMN 200 uM)	apparent KD of MS2 coat protein [1]	apparent KD of MS2 coat protein (input ligand: none)	apparent KD of MS2 coat protein [2]	apparent KD of MS2 coat protein [3]	apparent KD of MS2 coat protein [4]
CUGCUCCGUGUAGGAUAUGCAUACCACCACUAUGCAGAAGGACAUGAGGAUCACCCAUGUAUGUUAUUAUCACGUGUAGCGUCC [Design 18] (Eterna round: R96, puzzle: Exclusion NG 1)	23 nM	14.9 nM	20.6 nM			
UAUAUAUAGUAAGGAUAUGUAUAUAUUUUAUAAACAGAAGGUACUGACAUGAGGAUCACCCAUGUUUUAGUGUGGGCAUGUAGA [JMF's solution 7] (Eterna round: R96, puzzle: Exclusion NG 1)		57.5 nM				
AGCCAAGCAGGAUAUAUCCGGGAUAACAUGAGGAUCACCCAUGUGACCGCUUGAUAUCCUAUAGAAGGGCUUGGGA [Mod of ViennaUCT 24 - Jieux - Exclusion 5] (Eterna round: R97, puzzle: Exclusion 5)	54.8 nM		24.9 nM			
CUAAUACAUCAGGAUAUGUGUCGUGAUAGCGACACAGAAGGGAUGACAUGAGGAUCACCCAUGUCAAAGGGUGA [eternacac ex6r4 sub23] (Eterna round: R97, puzzle: Exclusion 6)	388 nM		519 nM			
CUAGAUCAUUGGAUCUAGUACAUGAGGAUCACCCAUGUGACGAGUUACAUGUUAUAUAAGCUUUUUGCUCGUCAUUU [AK 1] (puzzle: Sensor v3, turn-off variant 1)				63.4 nM	81.1 nM	86.3 nM
CCACUGUCAGGAUAUCGUGCAUAAGCGUUUACACUUAUGUGCGAGAAGGGACAUGAGGAUCACCCAUGUAAACG [Omei Ex4 A28PK7] (Eterna round: R97, puzzle: Exclusion 4)	628 nM		391 nM			
UCAUCCGUAGGAUAUAAGAAACACAACAUGAGGAUCACCCAUGUGACCGUCAGUUAUUGCUUAGAAGGACGCGUAC [Eternabot (L1) Solution 70] (Eterna round: R97, puzzle: Exclusion 5)	131 nM		91.2 nM			
AAAAUACAAGCAAGAUCCUACAUGAGGAUCACCCAUGUGCUCGUCUUAUAAAGUACUAUCACGAAAGUGAUAGUACA [Mat - Sensor v3 - turn-off var 1 - Eli Mod - D59] (puzzle: Sensor v3, turn-off variant 1)				256 nM	43.1 nM	415 nM
AAUAACAGAGGAUAUACUGUUUUAUGUGUUUAUUGUUUUAAACAUGAGGAUCACCCAUGUAGAAGGCUGAAUGA [JMF 58] (puzzle: Exclusion 2)					36.4 nM	
UAUUAGCAAGCGAGAUCCCACAUGAGGAUCACCCAUGUAAUAAAAGCAUCCAGAAUUACUGGGUGCGCUCGUCUUAU [Winner reversed engineered 14] (Eterna round: R97, puzzle: Sensor, turn-off variant 1)	47.7 nM		49.5 nM			
UAGAAAGAAGUCAGGAUAUCAUGAGUUGCAGCUCAUGAGAAGGGACAUGAGGAUCACCCAUGUAACACGCCUCU [Eternabot (L2) Solution 62] (Eterna round: R97, puzzle: Brourd's mod of Exclusion 4)	28.9 nM		24.8 nM			
UUUGUUUAUGUAGGAUAUGCCUGGCGUGCCUUCGCAGAAGGACAUGAGGAUCACCCAUGUAUUGCGGUCUGCGUUCAGAUCGCG [salish99_ExNG1_r4_029] (Eterna round: R96, puzzle: Exclusion NG 1)	52 nM	34.8 nM	43.2 nM			
GGAAGACAUGAGGAUCACCCAUGUAAGGAUAUCGGAGGUAAGGGAGGAAGGAGAUAGGCGAGAAGGUACAGGUG [JR_Exclu1_Sub094] (puzzle: Exclusion 1)				47.2 nM	35.5 nM	53 nM
GCAUGUUAUGUCAGGAUAUACCUAUGGAUACAUAGGUAGAAGGGACAUGAGGAUCACCCAUGUCCUAACCAUGC [Fiskers BMX 4 - 22] (puzzle: Brourd's mod of Exclusion 4)					11.4 nM	
UUCCAACAUGAGGAUCACCCAUGUCAGGAUAUCUAGGCUACUGCUACCACAAUUAGCUAGAGAAGGGACAAGAU [EX1 B.14] (Eterna round: R97, puzzle: Exclusion 1)	26.1 nM		19.5 nM			
CCAUCGAGUGUGAGGAUAUGCUGUUCGAAAGAGCAGCAGAAGGCACAUGAGGAUCACCCAUGUGGAUACGGUGG [Mat - Exclusion 4 - JL Mod - D82] (puzzle: Brourd's mod of Exclusion 4)					30.6 nM	
GGAGCCUUAGGAUAUACAUGAGGAUCACCCAUGUGAUGUCGAAGCAAGGGUCUCCUAGGUAGAAGGAAGACAAU [Eternabot (L1) Solution 90] (Eterna round: R97, puzzle: Exclusion 3)	19.4 nM		17.9 nM			
UGAUCAGACCGAGGAUAUACAUGGAGGACCCACGUGAGUGGGUCCACUACAUGAGGAUCACCCAUGUAGAAGGCGGUCUGAUCU [JL ENG2 1.91] (Eterna round: R96, puzzle: Exclusion NG 2)	1880 nM	91.3 nM	128 nM			
